In patent publication US20250074942A1, “COMPOSITIONS AND METHODS FOR COVALENT PEPTIDE-BASED MODULATORS OF HLA-E” (Calico Life Sciences LLC, priority 2022, published 2025):
Where no end group is shown, it is not given here. The star is where a group is joined. FITC = O=C1OC2(c3ccc(O)cc3Oc3cc(O)ccc32)c2ccc(NC(=S)*)cc21; mSF = 3-benzenesulfonyl fluoride, O=S(=O)(F)c1cccc(*)c1

What was measured:
HLA-E [1] = target: T1, HLA-E (Homo sapiens, UniProt P13747); assay: Binding to HLA-E by Fluorescence Polarization (FP); details: Table 18
T1 construct: [HLAE(hu)(22-305)]-Avitag]; made in house
Protocol: This example describes the analysis of binding of modified VL9 based peptides to HLA-E by Fluorescence Polarization (FP).
Briefly, proteins and VL9 or Qdm derived peptides were produced as described in EXAMPLE 2 and EXAMPLE 3 and binding to HLA-E was measured with Fluorescence Polarization.

[2] = target: T2, CD94/NKG2A binding to HLA-E (Homo sapiens, UniProt P13747); assay: Biolayer interferometry (BLI): inhibition of CD94/NKG2A binding to peptide-loaded HLA-E; details: for BLI result: BLOD = below the limit of detection
T2 construct: [HLAE(hu)(22-305)]-Avitag]; made in house
Protocol: Proteins were produced as described in EXAMPLE 2 and peptides were synthesized as described in EXAMPLE 3.
BLI was performed on a ForteBio Octet Red96e instrument. All proteins were diluted in 1× Kinetic Buffer (10× Kinetic buffer, Sartorius 181105) diluted in 1×PBS. A Blocking Buffer step was introduced to lower non-specific binding to the streptavidin (SA) tips by diluting 5% bovine serum albumin (BSA) and 20 μg/mL Biocytin (Sigma B4261) in 1× Kinetic Buffer. Refolded and biotinylated [HLA-E+VL9] complexes were loaded onto SA biosensors (Forte 18-5019) at ˜5 μg/ml (100 nM) with the following steps: 60 sec baseline in 1× Kinetic Buffer, 180 sec loading, 60 sec blocking in Blocking Buffer and 60 sec baseline in 1× Kinetic Buffer, all at 25° C. and 1000 rpm. hSCD and oaFC-hSCD binding to immobilized HLA-E/B2M complexes was monitored at 200 nM by a 90 sec association step, followed by a 120 sec dissociation step. Data correction was performed as follows: first, aligning the data to the average of the last baseline step on the y-axis; second, by aligning the data to the dissociation step for inter-step correction; and third by filtering the data using Savitzky-Golay Filtering.
This example describes the analysis of inhibition of CD94-NKG2A binding to HLA-E by exemplary modified peptides by bio-layer interferometry (BLI).
Briefly, proteins and VL9 or Qdm derived peptides were produced as described in EXAMPLE 2 and EXAMPLE 3. BLI measurements to determine inhibition were performed as described in EXAMPLE 4.

HLA-E [3] = target: T1, HLA-E; assay: Cross-linking of electrophilic peptides with [HLA-E+VL9], covalently bound HLA-E by LC-MS; assay type: binding; details: peptide in 10-fold excess with [HLA-E+VL9], 4 h at 37° C.
Protocol: The Cys peptide variants were equipped with a mSF warhead in a Pd-mediated coupling using Pd oxidative addition complex 1 (FIGS. 6A and 6B) X* indicating position functionalized with the electrophilic warhead). Electrophilic analogs of VL9 were subjected to cross-linking reactions in a 10-fold excess with [HLA-E+VL9] for 4 h at 37° C., and the amount of covalently bound HLA-E was determined by LC-MS as described in EXAMPLE 4.
Briefly, crosslinking reactions were performed as described in EXAMPLE 5.

[4] = Table 13, inhibition of CD94-NKG2A binding to HLA-E

T1 sequence (P13747 22-305): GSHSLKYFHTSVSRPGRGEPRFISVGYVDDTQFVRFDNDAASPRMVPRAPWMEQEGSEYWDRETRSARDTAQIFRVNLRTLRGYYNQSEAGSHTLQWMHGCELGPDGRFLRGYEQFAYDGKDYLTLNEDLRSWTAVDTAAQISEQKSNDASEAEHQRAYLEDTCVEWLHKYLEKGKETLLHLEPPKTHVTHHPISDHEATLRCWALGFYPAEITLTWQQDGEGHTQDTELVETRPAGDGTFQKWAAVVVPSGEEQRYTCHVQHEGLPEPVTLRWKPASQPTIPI
T1 sequence (P61769 21-119 partner): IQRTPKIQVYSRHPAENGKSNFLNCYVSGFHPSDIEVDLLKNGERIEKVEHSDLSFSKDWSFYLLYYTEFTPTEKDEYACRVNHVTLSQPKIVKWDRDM
T2 sequence (P13747 22-305): as the sequence (P13747 22-305) above
T2 sequence (P61769 21-119 partner): as the sequence (P61769 21-119 partner) above

Row | Substance | FP result (HLA-E [1]) | BLI result [2, 4] | further results
1 | ALCAPRLCL (cysteine pairing not given here) [Peptide P21] | Binding |  | 
2 | AMCGALCLF (cysteine pairing not given here) [Peptide P32] | Binding |  | 
3 | Ala-Leu-Cys-Ala-Pro-Arg-Leu-Cys-Leu-Gly-Gly-Lys(FITC) (ALCAPRLCLGGK(FITC); cysteine pairing not given here) [P21(FITC)] | Binding |  | 
4 | Ala-Leu-Cys-Arg-Trp-Arg-Cys-Leu-Tyr-Gly-Gly-Lys(FITC) (ALCRWRCLYGGK(FITC); cysteine pairing not given here) [P28(FITC)] | Binding |  | 
5 | Ala-Leu-Cys-Trp-Arg-Val-Pro-Cys-Thr (ALCWRVPCT-NH2; cysteine pairing not given here) [Peptide P20] | Binding |  | 
6 | Ala-Leu-Cys-Trp-Arg-Val-Pro-Cys-Thr-Gly-Gly-Lys(FITC) (H-ALCWRVPCTGGK(FITC)-NH2; cysteine pairing not given here) [P20(FITC)] | Binding |  | 
7 | Ala-Leu-Cys-Trp-His-Val-Pro-Cys-Gln-Gly-Gly-Lys(FITC) (ALCWHVPCQGGK(FITC); cysteine pairing not given here) [P23(FITC)] | Binding |  | 
8 | Ala-Met-Cys-Gly-Ala-Leu-Cys-Leu-Phe-Gly-Gly-Lys(FITC) (AMCGALCLFGGK(FITC); cysteine pairing not given here) [P32(FITC)] | Binding |  | 
9 | Ala-Met-Cys-Gly-Pro-Arg-Cys-Leu-Trp-Gly-Gly-Lys(FITC) (AMCGPRCLWGGK(FITC); cysteine pairing not given here) [P1(FITC)] | Binding |  | 
10 | Gly-hAr-Nle-hAr-Gln-Mff-Ala-Cha-hAr-Leu [Peptide G1_B9] |  |  | BLI result ([2]; Table 15, peptides with additional amino acids at the N-terminus): inhibition
11 | Lys(TAMRA)-Nle-hAr-Gln-Mff-Ala-Cha-hAr-Leu [B9_1Lys(TAMRA)] |  | inhibition | 
12 | NH2-Cha-hAr-Ala-Leu-hAr-Gln-Met-Mff-hAr-OH [Peptide B5.scrambled] |  |  | inhibition of CD94/NKG2A binding (in words) ([2]; BLI, CD94-NKG2A 200 nM): no inhibition of binding
13 | NH2-Cys(mSF)-Met-Ala-Pro-Arg-Thr-Leu-Phe-Leu-OH (H-C(mSF)MAPRTLFL-OH; SMILES CSCC[C@H](NC(=O)[C@@H](N)CSc1cccc(S(=O)(=O)F)c1)C(=O)N[C@@H](C)C(=O)N1CCC[C@H]1C(=O)N[C@@H](CCCNC(=N)N)C(=O)N[C@H](C(=O)N[C@@H](CC(C)C)C(=O)N[C@@H](Cc1ccccc1)C(=O)N[C@@H](CC(C)C)C(=O)O)[C@@H](C)O) [VL9—1Cys(mSF)] |  |  | cross-linking with HLA-E (in words) (HLA-E [3]): no or only trace amounts of cross-linking
14 | NH2-Val-Cys(mSF)-Ala-Pro-Arg-Thr-Leu-Phe-Leu-OH (H-VC(mSF)APRTLFL-OH; SMILES CC(C)C[C@H](NC(=O)[C@H](Cc1ccccc1)NC(=O)[C@H](CC(C)C)NC(=O)[C@@H](NC(=O)[C@H](CCCNC(=N)N)NC(=O)[C@@H]1CCCN1C(=O)[C@H](C)NC(=O)[C@H](CSc1cccc(S(=O)(=O)F)c1)NC(=O)[C@@H](N)C(C)C)[C@@H](C)O)C(=O)O) [VL9—2Cys(mSF)] |  |  | cross-linking with HLA-E (in words) (HLA-E [3]): no or only trace amounts of cross-linking
15 | NH2-Val-Met-Ala-Cys(mSF)-Arg-Thr-Leu-Phe-Leu-OH (H-VMAC(mSF)RTLFL-OH; SMILES CSCC[C@H](NC(=O)[C@@H](N)C(C)C)C(=O)N[C@@H](C)C(=O)N[C@@H](CSc1cccc(S(=O)(=O)F)c1)C(=O)N[C@@H](CCCNC(=N)N)C(=O)N[C@H](C(=O)N[C@@H](CC(C)C)C(=O)N[C@@H](Cc1ccccc1)C(=O)N[C@@H](CC(C)C)C(=O)O)[C@@H](C)O) [VL9—4Cys(mSF)] |  |  | amount of covalently bound (cross-linked) HLA-E (HLA-E [3]): 36%
16 | NH2-Val-Met-Ala-Pro-Arg-Cys(mSF)-Leu-Phe-Leu-OH (H-VMAPRC(mSF)LFL-OH; SMILES CSCC[C@H](NC(=O)[C@@H](N)C(C)C)C(=O)N[C@@H](C)C(=O)N1CCC[C@H]1C(=O)N[C@@H](CCCNC(=N)N)C(=O)N[C@@H](CSc1cccc(S(=O)(=O)F)c1)C(=O)N[C@@H](CC(C)C)C(=O)N[C@@H](Cc1ccccc1)C(=O)N[C@@H](CC(C)C)C(=O)O) [VL9—6Cys(mSF)] |  |  | cross-linking with HLA-E (in words) (HLA-E [3]): no or only trace amounts of cross-linking
17 | NH2-Val-Met-Ala-Pro-Arg-Thr-Cys(mSF)-Phe-Leu-OH (H-VMAPRTC(mSF)FL-OH; SMILES CSCC[C@H](NC(=O)[C@@H](N)C(C)C)C(=O)N[C@@H](C)C(=O)N1CCC[C@H]1C(=O)N[C@@H](CCCNC(=N)N)C(=O)N[C@H](C(=O)N[C@@H](CSc1cccc(S(=O)(=O)F)c1)C(=O)N[C@@H](Cc1ccccc1)C(=O)N[C@@H](CC(C)C)C(=O)O)[C@@H](C)O) [VL9—7Cys(mSF)] |  |  | amount of covalently bound (cross-linked) HLA-E (HLA-E [3]): 22%
18 | NH2-Val-Met-Ala-Pro-Arg-Thr-Leu-Cys(mSF)-Leu-OH (H-VMAPRTLC(mSF)L-OH; SMILES CSCC[C@H](NC(=O)[C@@H](N)C(C)C)C(=O)N[C@@H](C)C(=O)N1CCC[C@H]1C(=O)N[C@@H](CCCNC(=N)N)C(=O)N[C@H](C(=O)N[C@@H](CC(C)C)C(=O)N[C@@H](CSc1cccc(S(=O)(=O)F)c1)C(=O)N[C@@H](CC(C)C)C(=O)O)[C@@H](C)O) [VL9—8Cys(mSF)] |  | inhibition | able to reduce the binding of CD94-NKG2A to HLA-E (in words) ([2]; BLI after a 2 h incubation of [HLA-E+VL9] with the electrophilic peptide): not; amount of covalently bound (cross-linked) HLA-E (HLA-E [3]): 87%
19 | NH2-Val-Met-Ala-Pro-Arg-Thr-Leu-Phe-Cys(mSF)-OH (H-VMAPRTLFC(mSF)-OH; SMILES CSCC[C@H](NC(=O)[C@@H](N)C(C)C)C(=O)N[C@@H](C)C(=O)N1CCC[C@H]1C(=O)N[C@@H](CCCNC(=N)N)C(=O)N[C@H](C(=O)N[C@@H](CC(C)C)C(=O)N[C@@H](Cc1ccccc1)C(=O)N[C@@H](CSc1cccc(S(=O)(=O)F)c1)C(=O)O)[C@@H](C)O) [VL9—9Cys(mSF)] |  |  | cross-linking with HLA-E (in words) (HLA-E [3]): no or only trace amounts of cross-linking
20 | NH2-Val-Met-Ala-Pro-Cys(mSF)-Thr-Leu-Phe-Leu-OH (H-VMAPC(mSF)TLFL-OH; SMILES CSCC[C@H](NC(=O)[C@@H](N)C(C)C)C(=O)N[C@@H](C)C(=O)N1CCC[C@H]1C(=O)N[C@@H](CSc1cccc(S(=O)(=O)F)c1)C(=O)N[C@H](C(=O)N[C@@H](CC(C)C)C(=O)N[C@@H](Cc1ccccc1)C(=O)N[C@@H](CC(C)C)C(=O)O)[C@@H](C)O) [VL9—5Cys(mSF)] |  |  | cross-linking with HLA-E (in words) (HLA-E [3]): no or only trace amounts of cross-linking
21 | NH2-Val-Met-Cys(mSF)-Pro-Arg-Thr-Leu-Phe-Leu-OH (H-VMC(mSF)PRTLFL-OH; SMILES CSCC[C@H](NC(=O)[C@@H](N)C(C)C)C(=O)N[C@@H](CSc1cccc(S(=O)(=O)F)c1)C(=O)N1CCC[C@H]1C(=O)N[C@@H](CCCNC(=N)N)C(=O)N[C@H](C(=O)N[C@@H](CC(C)C)C(=O)N[C@@H](Cc1ccccc1)C(=O)N[C@@H](CC(C)C)C(=O)O)[C@@H](C)O) [VL9—3Cys(mSF)] |  |  | amount of covalently bound (cross-linked) HLA-E (HLA-E [3]): 73%
22 | Val-Met-Ala-Pro-Lys(FITC)-Thr-Leu-Phe-Leu (VMAPK(FITC)TLFL) [VL9—5Lys(FITC)] | Exchange |  | 
23 | hAr-Nle-hAr-Gln-Lys(CUM)-Ala-Cha-hAr-Leu [B9_5Lys(CUM)] |  | inhibition | 
24 | hAr-Nle-hAr-Gln-Lys(DOTA)-Ala-Cha-hAr-Leu [B9_5Lys(DOTA)] |  | inhibition | 
25 | hAr-Nle-hAr-Gln-Lys(FITC)-Ala-Cha-hAr-Leu [B9_5Lys(FITC)] |  | inhibition | 
26 | hAr-Nle-hAr-Gln-Lys(TAMRA)-Ala-Cha-hAr-Leu [B9_5Lys(TAMRA)] |  | inhibition | 
27 | hAr-Nle-hAr-Gln-Lys(ibu)-Ala-Cha-hAr-Leu [B9_5Lys(ibu)] |  | inhibition | 
28 | hAr-Nle-hAr-Gln-Mff-Ala-Cha-Lys(TAMRA)-Leu [B9_8Lys(TAMRA)] |  | inhibition | 
29 | hAr-Nle-hAr-Gln-Mff-Ala-Cha-Lys(ibu)-Leu [B9_8Lys(ibu)] |  | inhibition | 
30 | hAr-Nle-hAr-Gln-Mff-Ala-Cha-hAr-Leu-Leu-Pro-Glu-Thr-Gly-Gly [Peptide B9_LPETGG] |  | inhibition | 
